Measured values published in paper PMC9820303, “^αN-Acetyl β-Endorphin Is an Endogenous Ligand of σ1Rs That Regulates Mu-Opioid Receptor Signaling by Exchanging G Proteins for σ2Rs in σ1R Oligomers” (International Journal of Molecular Sciences, 2022).

Experiments:
[1] = molecular target: σ1R-σ2R (Mus musculus, UniProt O55242); assay: σ1R/σ2R coprecipitation from CHO cells cotransfected with cMyc-σ1R and HA-σ2R; format: cell-based, Chinese hamster ovary (CHO) cells; design: Full-length sigma receptors were subcloned in frame; expressed in transfected cells; host or cells: CHO cells; conditions: peptides 1 nM, PRE084, S1RA and BD1047 100 nM; 30 min in serum-free medium
Method: Effect of β-End 1–31 and ^αN-acetyl derivative. (A) Single-wavelength and merged images of CHO cells cotransfected with cMyc-σ1R and HA-σ2R. The cells were fixed 48 h after transfection and analyzed by confocal laser scanning microscopy. Transient expression of proteins within the transfected cells was detected with anti-cMyc (green) and anti-HA (red) antibodies (original magnification 10×). […] Scale bar: 30 µm. (B) Nuclei stained with DAPI (blue). (C–F) Single-wavelength and merged images are enlargements of individual cells. Scale bar: 5 µm. Lower panels: (G) Immunoprecipitation (IP) of tagged sigma receptor types from cotransfected CHO cells. […] Representative blots are shown.
CHO cells were cultured in modified Eagle’s medium/nutrient mixture F-12 (DMEM/F12) supplemented with GlutaMax (#31331028, ThermoFisher, Spain), 10% foetal bovine serum (#10500064, ThermoFisher), 100 IU/mL penicillin and 100 μg/mL streptomycin (#15140148, ThermoFisher) at 37 °C in a humidified 5% CO2 incubator as described previously. Full-length sigma receptors were subcloned in frame into the pSF-CMV-Puro-NH2-CMyc N-terminal tag (σ1R, #OGS3214, Merck-Sigma) and pSF-CMV-Puro-NH2-HA N-terminal tag (σ2R, #OGS1500, Merck-Sigma) mammalian plasmids using standard cloning strategies. CHO cells were seeded on 12-well plates at a concentration of 0.35 × 10^6 cells per well, grown in Opti-MEM™ I Reduced Serum Medium (#31985070, ThermoFisher) to 70–80% confluence, transfected using Lipofectamine 2000 (#11668030, Invitrogen) and incubated for 24 h prior to testing for transgene expression. For all experiments, the culture medium was replaced with serum-free medium before the addition of sigma ligands and incubated for 30 min. Cells were then harvested and cellular extracts were prepared for immunoprecipitation analysis. Receptors were detected by Western blot analysis using an antibody that recognizes either tag: Myc-tag (#MA1 21316 BTIN, Invitrogen), HA-tag (#26183-BTIN, Invitrogen).

[2] = molecular target: T1, σ1R oligomers-G proteins (Gi2, Go, Gq-11, Gz) (Mus musculus, UniProt O55242); assay: Ex vivo fishing assay: G proteins of mouse solubilized brain membranes (SBM) bound to agarose-σ1R oligomers; format: biochemical; conditions: for effect on G protein binding to agarose-σ1R oligomers: 2 h, increasing concentrations, n = 3
T1 construct: The coding region of the full-length murine σ1R (AF004927); GST (N); made in house; host or cells: E. coli BL21 (KRX) for σ1R; the G proteins come from solubilised mouse cerebral cortex synaptosomal membranes
Method: (A) The effect of σ1R deletion on opioid- and cannabinoid-induced analgesia. Analgesic compounds were icv-injected into wild-type and σ1R^−/− mice, and analgesia was evaluated 30 min after morphine (3 nmol) and β-End 1–31 (0.5 nmol), 15 min after DAMGO (0.1 nmol) and DPDPE (10 nmol) and 10 min after WIN55,212-2 (15 nmol). The bars are the mean ± SD of eight mice per strain and treatment. * Significant difference with respect to the effect of the analgesic substance in the wild-type group. ANOVA followed by the Holm–Sidak multiple comparisons test, p < 0.05, 1-β > 0.80. (B) Coprecipitation of G proteins with MORs. Solubilized mouse brain cortical membranes enriched in synaptosomes (SBM) from CD1 wild-type (WT) and σ1R^−/− mice were solubilized with sonication in the presence of 1% NP-40. Non-soluble debris was eliminated, and the samples were then incubated overnight at 4 °C with affinity-purified biotinylated IgGs that were raised against extracellular regions of the MOR. Protein complexes that were immunoprecipitated with streptavidin agarose were extensively washed and then resolved by SDS-PAGE. The target G proteins, alpha and beta subunits, were visualized by Western blotting (for further details, see Section 4). IP: immunoprecipitated protein, WB: Western blot. Detection of MORs: these proteins were detected with an anti-MOR antibody directed to the C-terminal sequence, a different amino acid sequence than that used for immunoprecipitation (second extracellular loop-2EL). In parallel blots, an antibody directed to the light IgG chain of the anti-MOR antibodies used for immunoprecipitation of MORs provided a loading control for the samples in the gels. […] The immunosignals of Gα subunits coprecipitated with MORs were referred to those of the MORs. Data are the mean ± SD of three determinations. ANOVA followed by the Holm–Sidak multiple comparisons test, p < 0.05, 1-β > 0.80. (C) Pull-down assays using mouse SBM. Cerebral cortex fractions enriched in synaptosomes from CD1 WT mice were solubilized with RIPA buffer and incubated for 2 h with recombinant σ1Rs covalently attached to agarose-NHS (Θ-σ1R). Agarose pellets containing the bound proteins were resolved by SDS-PAGE, and the G protein α subunits were probed in Western blots. The capture of σ1Rs and σ2Rs by Θ-σ1R was also determined in SBM from WT, σ1R^−/− and σ2R^−/− mice. […] Representative blots are shown. (D) Effect of ligands on the association of endogenous G proteins present in mouse SBM with Θ-σ1R oligomers produced in vitro (see Section 4). The Θ-σ1Rs were incubated with the SBM in the absence and presence of increasing concentrations of σ1R ligands. The G proteins that remained bound to Θ-σ1R oligomers were determined as in (C). […] For each compound and concentration studied data are the mean ± SD, n = 3. Data were analyzed by pairwise Holm–Sidak multiple comparison tests following ANOVA: p < 0.05, 1-β > 0.80.
For fishing studies, solubilization of neural synaptosomes from cerebral cortices or PAG was carried out at 4 °C in RIPA buffer. The membranes were incubated at 4 °C for 16 h with agitation, and then centrifuged at 10,000× g for 5 min. The supernatant was cleared with 20 μL of Sepharose 4B (#17-0120-01, GE Healthcare) pre-equilibrated for 1 h at 4 °C, followed by centrifugation at 4300× g for 5 min. The σ1R was immobilized through covalent attachment to N-Hydroxysuccinimide (NHS)-activated Sepharose 4 fast flow (4FF, #17-0906-01; GE) according to the manufacturer’s instructions.

Chain of σ1R-σ2R (O55242 whole entry): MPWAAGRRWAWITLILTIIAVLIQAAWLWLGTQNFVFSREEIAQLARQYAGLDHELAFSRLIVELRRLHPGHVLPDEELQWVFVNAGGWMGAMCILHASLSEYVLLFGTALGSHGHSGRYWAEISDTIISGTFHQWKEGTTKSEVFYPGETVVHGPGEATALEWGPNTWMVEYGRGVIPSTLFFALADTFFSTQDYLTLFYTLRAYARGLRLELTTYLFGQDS
T1 sequence (O55242 whole entry): as above

| Molecule | effect on σ1R-σ2R association in CHO cells [1] | effect on G protein binding to agarose-σ1R oligomers ([2]; wild-type SBM) | release of G proteins from σ1R oligomers in the absence of σ2Rs ([2]; SBM from σ2R−/− mice) | concentrations needed for Gz to be freed from σ1R oligomers ([2]; wild-type SBM) | concentrations releasing Go, Gq-11 and Gi2 proteins from σ1R oligomers ([2]; wild-type SBM) |
| --- | --- | --- | --- | --- | --- |
| Br.Br.CN(C)CCN(C)CCc1ccc(Cl)c(Cl)c1 [BD1047, N′-[2-(3,4-dichlorophenyl)ethyl]-N,N,N′-trimethylethane-1,2-diamine;dihydrobromide, reference compound] | preserved these protein complexes |  |  |  |  |
| Cl.O=C(OCCN1CCOCC1)C1(c2ccccc2)CCCCC1 [PRE084, 2-(4-morpholinethyl)-1-phenylcyclohexanecarboxylate hydrochloride, reference compound] | strongly decreased the σ1R-σ2R association | did not disrupt G protein binding to σ1R oligomers but increased the binding to Gz proteins |  |  |  |
| Cc1cc(OCCN2CCOCC2)nn1-c1ccc2ccccc2c1 [S1RA] | preserved these protein complexes | exhibited G-protein-releasing effects |  |  |  |
| KKGE [β-End 28–31, C-terminal tetrapeptide of β-End 1–31] |  | showed G-protein-releasing effects |  |  |  |
| ^αN-acetyl β-End 1–31: β-End 1–31 acetylated at N terminal Y1, α position | preserved these protein complexes | efficiently released G proteins from agarose-σ1Rs | failed to release G proteins from σ1R oligomers | pM concentrations | fM concentrations |
| β-End 1–26: β-End 1–31 derivative without 5 C-terminal residues (YGGFMTSEKSQTPLVTLFKNAIIKNA; Beta-endorphin; UniProt P01189 237-262, looked up, fragment) |  | showed G-protein-releasing effects |  |  |  |
| β-End 1–27: β-End 1–31 derivative without 4 C-terminal residues (YGGFMTSEKSQTPLVTLFKNAIIKNAY; Beta-endorphin; UniProt P01189 237-263, looked up, fragment) |  | showed G-protein-releasing effects |  |  |  |
